# Article PMC12455665, “Convergent construction of N-terminally modified CCL5 chemokines for photoaffinity receptor pull-down using cross-aldol bioconjugations” (RSC Chemical Biology, 2025)
# Molecular target: T1, CCR5 chemokine receptor on CHO-CCR5 cells (UniProt P51681 1-352)
# T1 construct: also called the receptor; source: Chinese hamster ovary cell line (CHO), stably expressing CCR5
# Assay: not stated; receptor binding of CCL5 P2G against wild-type CCL5 (Fig. S14); methods in the SI, not shown
# T1 sequence (P51681 whole entry): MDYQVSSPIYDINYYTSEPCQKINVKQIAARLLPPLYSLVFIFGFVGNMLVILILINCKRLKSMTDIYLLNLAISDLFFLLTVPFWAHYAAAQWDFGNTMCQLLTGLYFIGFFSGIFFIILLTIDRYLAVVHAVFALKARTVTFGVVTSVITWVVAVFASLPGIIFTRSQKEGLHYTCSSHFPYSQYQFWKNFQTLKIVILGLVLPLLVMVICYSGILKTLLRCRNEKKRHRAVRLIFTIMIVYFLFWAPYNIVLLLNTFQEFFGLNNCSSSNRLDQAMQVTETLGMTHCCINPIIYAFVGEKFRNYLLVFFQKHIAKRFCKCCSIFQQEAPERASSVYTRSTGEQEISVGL
binder,measurement,value
"CCL5 P2G 1 (ligand, human, UniProt P13501 24-91, looked up, Human C–C chemokine ligand 5 (CCL5, RANTES), with its native N-terminal serine after traceless SUMO cleavage, point mutant P2G; also called CCL5 point mutant (P2G); CCL5 P2G variant; source: E. coli SHuffle LysY, purified (His-SUMO tag capture, SUMO protease cleavage); not shown: His, N-terminal, cleaved; SUMO, N-terminal, cleaved) SGYSSDTTPCCFAYIARPLPRAHIKEYFYTSGKCSNPAVVFVTRKNRQVCANPEKKWVREYINSLEMS",fold reduction of binding against wild-type CCL5,3 fold
